B1: glmS ribozyme (parent)
chain: AUAAAAGCGCCAGAACUACAGAAAUGUAGUUGACGAGGAGGAGGUUUAUCGAAUUUUCGGCGGAUGCCUCCAAA

Common to all, as to conditions: with glucosamine-6-phosphate
Series [1] covers variants of B1. In words: self-cleavage kobs at 160 uM GlcN6P; higher = faster cleavage; RNA array. Put shortly:
(§1)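 E. coli RNA polymerase transcribed barcoded ribozyme variants in situ on sequenced MiSeq chips, which were tracked via a hybridised Cy3 probe at 37 °C. Tiles were imaged over ~14 h after glucosamine-6-phosphate (40 μM to 10 mM) in HEPES/KCl/Mg(OAc)2 buffer was flowed in. Normalised per-tile medians were fit to one- or two-exponential decays for kobs, and kcat and KM came from weighted Michaelis–Menten fits.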

Variants of B1 are the subject of series [2]. In words: self-cleavage kobs at 640 uM GlcN6P; higher = faster cleavage; RNA array. The method in brief: as §1
Series [3] covers variants of B1. As to the kind of experiment: self-cleavage kobs at 2500 uM GlcN6P; higher = faster cleavage; RNA array. The method in brief: as §1
The variants in series [4] derive from B1. As to the kind of experiment: self-cleavage kobs at 10000 uM GlcN6P; higher = faster cleavage; RNA array. Put shortly: as §1
Series [5] covers variants of B1. In words: self-cleavage kobs at 40 uM GlcN6P; higher = faster cleavage; RNA array. Put shortly:
as §1

± gives the standard error. Fewer inactive variants are shown than the library holds.

Take G7C U56A: the “self-cleavage kobs at 160 uM GlcN6P” value in series [1] was < 1e-05 s⁻¹. The “self-cleavage kobs at 640 uM GlcN6P” value in series [2] is < 1e-05 s⁻¹. Moreover, in series [3], the “self-cleavage kobs at 2500 uM GlcN6P” value is < 1e-05 s⁻¹. Further, the “self-cleavage kobs at 10000 uM GlcN6P” value in series [4] was < 1e-05 s⁻¹.
With A42C U55A U57C, the “self-cleavage kobs at 40 uM GlcN6P” value in series [5] is < 1e-05 s⁻¹.
As to G9A U45C, the “self-cleavage kobs at 40 uM GlcN6P” value in series [5] is < 1e-05 s⁻¹. Also, the “self-cleavage kobs at 160 uM GlcN6P” value in series [1] was < 1e-05 s⁻¹. Further, the “self-cleavage kobs at 10000 uM GlcN6P” value in series [4] is < 1e-05 s⁻¹.
As to U45C C61A, in series [1], the “self-cleavage kobs at 160 uM GlcN6P” value was < 1e-05 s⁻¹. Also, the “self-cleavage kobs at 2500 uM GlcN6P” value in series [3] was < 1e-05 s⁻¹. In addition, in series [4], the “self-cleavage kobs at 10000 uM GlcN6P” value is < 1e-05 s⁻¹.
Take A14G G32C U49A: the “self-cleavage kobs at 40 uM GlcN6P” value in series [5] is < 1e-05 s⁻¹. The “self-cleavage kobs at 10000 uM GlcN6P” value in series [4] was < 1e-05 s⁻¹.
Take A6G A14G C16U G32U G35C G41C C50A C71G: the “self-cleavage kobs at 160 uM GlcN6P” value in series [1] is < 1e-05 s⁻¹. Also, the “self-cleavage kobs at 2500 uM GlcN6P” value in series [3] was < 1e-05 s⁻¹.
Take A6G A15C U45A G59A: the “self-cleavage kobs at 160 uM GlcN6P” value in series [1] is < 1e-05 s⁻¹. Further, the “self-cleavage kobs at 640 uM GlcN6P” value in series [2] is < 1e-05 s⁻¹. For the same variant, the “self-cleavage kobs at 2500 uM GlcN6P” value in series [3] was < 1e-05 s⁻¹.
For U57C C58U, in series [1], the “self-cleavage kobs at 160 uM GlcN6P” value is < 1e-05 s⁻¹.
Take G7C C10G C70U: the “self-cleavage kobs at 160 uM GlcN6P” value in series [1] was < 1e-05 s⁻¹. In addition, in series [4], the “self-cleavage kobs at 10000 uM GlcN6P” value was < 1e-05 s⁻¹.
U31A A33G A48G: in series [1], the “self-cleavage kobs at 160 uM GlcN6P” value was < 1e-05 s⁻¹.
For G32U G60C, the “self-cleavage kobs at 160 uM GlcN6P” value in series [1] was < 1e-05 s⁻¹. Also, in series [2], the “self-cleavage kobs at 640 uM GlcN6P” value is < 1e-05 s⁻¹. The “self-cleavage kobs at 2500 uM GlcN6P” value in series [3] was < 1e-05 s⁻¹.
As for A6U A48C U57G, the “self-cleavage kobs at 160 uM GlcN6P” value in series [1] is < 1e-05 s⁻¹.
As for G9C C70U, the “self-cleavage kobs at 40 uM GlcN6P” value in series [5] is < 1e-05 s⁻¹. For the same variant, in series [1], the “self-cleavage kobs at 160 uM GlcN6P” value was < 1e-05 s⁻¹. Besides, the “self-cleavage kobs at 640 uM GlcN6P” value in series [2] was < 1e-05 s⁻¹. Further, the “self-cleavage kobs at 2500 uM GlcN6P” value in series [3] was < 1e-05 s⁻¹. Also, the “self-cleavage kobs at 10000 uM GlcN6P” value in series [4] is < 1e-05 s⁻¹.
Consider G37A U49A, for which, in series [5], the “self-cleavage kobs at 40 uM GlcN6P” value was < 1e-05 s⁻¹. For the same variant, the “self-cleavage kobs at 640 uM GlcN6P” value in series [2] is < 1e-05 s⁻¹. Moreover, the “self-cleavage kobs at 2500 uM GlcN6P” value in series [3] is < 1e-05 s⁻¹.
For C8G C11G C16G C34A, the “self-cleavage kobs at 160 uM GlcN6P” value in series [1] is < 1e-05 s⁻¹. For the same variant, in series [3], the “self-cleavage kobs at 2500 uM GlcN6P” value was < 1e-05 s⁻¹.
C16G U46A C50A U69G: the “self-cleavage kobs at 160 uM GlcN6P” value in series [1] was 0.000562 ± 0.00018 s⁻¹.
On to A36U G63U, for which, in series [1], the “self-cleavage kobs at 160 uM GlcN6P” value was < 1e-05 s⁻¹. In addition, in series [2], the “self-cleavage kobs at 640 uM GlcN6P” value is < 1e-05 s⁻¹. Further, the “self-cleavage kobs at 2500 uM GlcN6P” value in series [3] was < 1e-05 s⁻¹.
Regarding U47C U49A, in series [1], the “self-cleavage kobs at 160 uM GlcN6P” value is < 1e-05 s⁻¹. Further, the “self-cleavage kobs at 2500 uM GlcN6P” value in series [3] is < 1e-05 s⁻¹. Moreover, the “self-cleavage kobs at 10000 uM GlcN6P” value in series [4] was < 1e-05 s⁻¹.
On to G9C G38C G63U, for which the “self-cleavage kobs at 160 uM GlcN6P” value in series [1] was < 1e-05 s⁻¹. Further, in series [3], the “self-cleavage kobs at 2500 uM GlcN6P” value was < 1e-05 s⁻¹.
As for G13C A39C A53C, the “self-cleavage kobs at 160 uM GlcN6P” value in series [1] is < 1e-05 s⁻¹.
As to G7C G41C, the “self-cleavage kobs at 160 uM GlcN6P” value in series [1] was < 1e-05 s⁻¹. Also, the “self-cleavage kobs at 640 uM GlcN6P” value in series [2] was < 1e-05 s⁻¹. For the same variant, the “self-cleavage kobs at 10000 uM GlcN6P” value in series [4] was < 1e-05 s⁻¹.
In the case of C8G G40C U49C C61A, in series [1], the “self-cleavage kobs at 160 uM GlcN6P” value is < 1e-05 s⁻¹. In addition, the “self-cleavage kobs at 640 uM GlcN6P” value in series [2] was < 1e-05 s⁻¹. In series [3], the “self-cleavage kobs at 2500 uM GlcN6P” value was < 1e-05 s⁻¹.
On to U55G G62C, for which the “self-cleavage kobs at 160 uM GlcN6P” value in series [1] was < 1e-05 s⁻¹. In addition, the “self-cleavage kobs at 640 uM GlcN6P” value in series [2] is < 1e-05 s⁻¹. For the same variant, the “self-cleavage kobs at 2500 uM GlcN6P” value in series [3] is < 1e-05 s⁻¹. For the same variant, the “self-cleavage kobs at 10000 uM GlcN6P” value in series [4] was < 1e-05 s⁻¹.
In the case of A14C A39U U56A G63U, the “self-cleavage kobs at 160 uM GlcN6P” value in series [1] was < 1e-05 s⁻¹.
As for C10G A12G G38C, the “self-cleavage kobs at 160 uM GlcN6P” value in series [1] was < 1e-05 s⁻¹. Moreover, the “self-cleavage kobs at 640 uM GlcN6P” value in series [2] is < 1e-05 s⁻¹.
On to G51U A52U U65G, for which the “self-cleavage kobs at 160 uM GlcN6P” value in series [1] was < 1e-05 s⁻¹. In addition, the “self-cleavage kobs at 640 uM GlcN6P” value in series [2] was < 1e-05 s⁻¹. In addition, the “self-cleavage kobs at 2500 uM GlcN6P” value in series [3] was < 1e-05 s⁻¹.
